# Measured values taken from article doi:10.1101/2023.06.02.543398 (bioRxiv, 2023).
# Ends that are not written are not given here.
# B1: MAP7 MT-binding domain (MTBD), residues 59-170 (domain or fragment)
# chain: PVLRVDDRQRLARERREEREKQLAAREIVWLEREERARQHYEKHLEERKKRLEEQRQKEERRRAAVEEKRRQRLEEDKERHEAVVRRTMERSQKPKQKHNRWSWGGSLHGSP
# Key:
# [1] = biological target: B1; experiment: fluorescence polarisation
# [2] = biological target: Taxol-stabilized microtubules from lyophilized tubulin (Cytoskeleton, Inc.) (UniProt P02550 1-451; P02554 1-445); experiment: ITC
# Chain of Taxol-stabilized microtubules from lyophilized tubulin (Cytoskeleton, Inc.) (P02550 whole entry, chain 1 of 2): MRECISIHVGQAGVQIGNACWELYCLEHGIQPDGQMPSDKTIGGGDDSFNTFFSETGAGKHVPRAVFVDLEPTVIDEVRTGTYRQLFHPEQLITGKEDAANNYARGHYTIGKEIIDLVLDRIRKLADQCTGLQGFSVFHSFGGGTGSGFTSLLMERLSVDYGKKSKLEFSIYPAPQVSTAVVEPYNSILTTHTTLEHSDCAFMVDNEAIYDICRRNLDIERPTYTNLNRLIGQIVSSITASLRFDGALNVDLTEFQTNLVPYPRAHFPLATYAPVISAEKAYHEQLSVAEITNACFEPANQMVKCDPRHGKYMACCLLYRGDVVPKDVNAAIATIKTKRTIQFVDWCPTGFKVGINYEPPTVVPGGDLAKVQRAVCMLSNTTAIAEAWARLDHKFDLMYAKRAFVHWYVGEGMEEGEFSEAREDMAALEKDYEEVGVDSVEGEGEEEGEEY
# Chain of Taxol-stabilized microtubules from lyophilized tubulin (Cytoskeleton, Inc.) (P02554 whole entry, chain 2 of 2): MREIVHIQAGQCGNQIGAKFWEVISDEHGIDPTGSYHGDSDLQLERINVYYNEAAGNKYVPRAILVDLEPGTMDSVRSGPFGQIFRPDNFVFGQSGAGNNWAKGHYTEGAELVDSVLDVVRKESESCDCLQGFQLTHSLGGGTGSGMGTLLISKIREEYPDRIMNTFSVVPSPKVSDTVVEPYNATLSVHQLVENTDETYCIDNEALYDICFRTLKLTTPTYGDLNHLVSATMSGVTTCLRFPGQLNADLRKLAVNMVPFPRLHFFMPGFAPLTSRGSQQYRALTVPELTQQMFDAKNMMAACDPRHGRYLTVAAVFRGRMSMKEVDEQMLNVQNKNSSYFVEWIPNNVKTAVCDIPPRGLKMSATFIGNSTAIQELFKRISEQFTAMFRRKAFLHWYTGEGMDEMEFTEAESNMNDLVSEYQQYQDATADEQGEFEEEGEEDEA
Binder,Kd [1],Kd [2],stoichiometry N [2]
"SVEGEGEEEGEEY (also: NHS-fluorescein label, position not given here) [NHS-fluorescein-labelled α-tubulin carboxy-terminal tail peptide]",91.3 ± 17.5 µM,,
B1,,940 nM,0.51 ± 0.09 MAP7 MTBD to tubulin
